Source: US5763573A, “GTPase activating protein fragments” (Chiron Corporation, priority 1995, dated 1998)

How the values were obtained:
[1] = target: H-ras protein (Homo sapiens, UniProt P01112); experiment: Typical GAP assay with immunoprecipitated H-ras bound to α-32P-GTP, TLC; format: biochemical; conditions: sufficient GAP; 60 minutes at room temperature
Excerpt: A typical GAP assay can be carried out as follows. Approximately 0.8 micrograms of H-ras protein obtained as described by Trahey, et al., supra was bound to α-32P-GTP followed by precipitation of the complex with 13 micrograms of an anti-ras antibody, 157-181, that recognizes the carboxyl terminal end of the molecule. Specifically, 157-181 recognizes the carboxyl terminal residues at positions 157-181. Adari et al., 1988 Science, […]:518. Next, 10 micrograms of sheep-anti-mouse IgG, and 10 microliters of protein A-Sepharose beads were added. As a control, the same reactants were combined except that rat IgG replaced 157-181, and goat anti-rat IgG replaced sheep anti-mouse IgG. The pellets were washed with 20 mM tris hydrochloride, pH 7.4, containing 20 mM sodium chloride, 1 mM magnesium chloride and 1 mM DTT and resuspended in the same solution. Four microliter aliquots of the immune complex were then mixed with 10 microliters of GAP, or, as a control, buffer without GAP. After 60 minutes incubation at room temperature the Sepharose beads were washed again, and the bound nucleotides analyzed using thin layer chromatography with 1M LiCl as the solvent. […] The assay detects GAP in a semi-quantitative, dose-dependent fashion. Quantitation can be improved by scraping the relevant regions of the plate and measuring cpm in GDP by use of a gamma counter.

[2] = tested on: ras p21 protein; experiment: Filter assay of ras p21 hydrolysis of 32-P gamma-GTP with and without GAP; format: biochemical; conditions: FIG. 13; presence and absence of GAP; 30 minutes at room temperature
Protocol: The above four peptides, in the following two experiments, were tested for their abilities to inhibit the hydrolysis of GTP by ras p21 protein, in the presence and absence of GAP. The first experiment involved peptides G65, G73 and 891. It was carried out as follows: purified wild type ras p21 protein was incubated with 0.25 μM 32-P gamma-GTP in 100 mM NaPO4, pH 6.8, 0.5 mM DTT, 0.5 mM EDTA, 0.005% Na cholate, and 0.5 mg/ml BSA for 15 minutes at 30° C. The mixture was then diluted ten fold with TNM buffer (comprising 20 mM Tris-HCl, pH 7.0, 100 mM NaCl, 5 mM MgCl2). 20 μl (0.05 μg of p21) of this mixture was then combined with 2 μl of the peptide in 25 mM NaOAc, pH 5.5 and incubated for 5 minutes at room temperature. The GAP assay was initiated by the addition of 12 ng GAP in 5 μl TNM buffer with 1 mg/ml BSA or 5 μl TNM BSA buffer for the GAP independent reactions, and the resulting mixture was incubated for 30 minutes at room temperature. The samples were then filtered through nitrocellulose membranes and washed three times with cold TNM. The filters were dried and their radioactivity counted. […] In the presence of GAP, the radioactive ras p21-GTP complex is hydrolyzed to GDP and ras p21 protein, thus reducing the resulting amount of radioactive p21-GTP bound to the filter and consequently, the radioactive counts detected. […]

Sequence of H-ras protein (P01112 whole entry): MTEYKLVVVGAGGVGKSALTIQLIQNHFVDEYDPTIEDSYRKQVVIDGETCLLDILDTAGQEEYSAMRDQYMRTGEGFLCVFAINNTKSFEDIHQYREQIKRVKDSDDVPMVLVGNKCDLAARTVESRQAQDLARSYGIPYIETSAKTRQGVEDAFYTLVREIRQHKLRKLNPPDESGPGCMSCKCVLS

Substance	hydrolysis of GTP to GDP [1]	effect on hydrolysis of GTP (radioactive counts of ras p21-GTP complex on filter) [2]
GAP: guanine triphosphatase activating protein purified from human placenta, about 115,000-120,000 daltons	near complete hydrolysis	–
peptide G73: peptide corresponding to amino acids positions 975-990 of the full length GAP (GNVPELPDTTEHSRTD; UniProt P20936 975-990, looked up, fragment)	–	do not affect
